Results: patent US20240117043A1 (SHANGHAI JUNSHI BIOSCIENCES, published 2024)

T1: recombinant human HX1 hCD112R Fc (human, UniProt Q6DKI7 41-171, limits assumed)
T1 construct: Coated antigen of the ELISA (Suzhou Junmeng); also called human CD112R; not shown: Fc part
T1 sequence (looked up): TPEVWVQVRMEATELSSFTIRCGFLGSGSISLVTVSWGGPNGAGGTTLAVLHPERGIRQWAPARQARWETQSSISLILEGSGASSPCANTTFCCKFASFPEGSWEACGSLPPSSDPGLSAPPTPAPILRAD

T2: recombinant human TIGIT (His Tag) (human, UniProt Q495A1 22-141)
T2 construct: Coated antigen of the ELISA; not shown: His tag
T2 sequence (looked up): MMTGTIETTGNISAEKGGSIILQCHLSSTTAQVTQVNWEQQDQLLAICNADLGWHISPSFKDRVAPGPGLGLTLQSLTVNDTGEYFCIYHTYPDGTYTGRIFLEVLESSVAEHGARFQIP

B1: bispecific antibody JS-3 (IgG4) (bispecific antibody)
chain 1: not shown
chain 2: DIVMTQSPDSLAVSLGERATINCKASQSVSNDVAWYQQKPGQPPKLLIYYVSHRFTGVPDRFSGSGSGTDFTLTISSLQAEDVAVYFCHQAYRSPWTFGQGTKLEIKRTVAAPSVFIFPPSDEQLKSGTASVVCLLNNFYPREAKVQWKVDNALQSGNSQESVTEQDSKDSTYSLSSTLTLSKADYEKHKVYACEVTHQGLSSPVTKSFNRGECSGGGSGGGSEGGGSEGGGSEGGGSEGGGSGGGSGEVQLVESGGGLVKPGGSLRLSCAASGFTFSSYHMSWVRQAPGKGLELVSAINSNGINTYYLDTVKGRFTISRDNAKNSLYLQMNSLRAEDTAVYYCARHEDYYGFAMDYWGQGTLVTVSSASTKGPSVFPLAPCSRSTSESTAALGCLVKDYFPEPVTVSWNSGALTSGVHTFPAVLQSSGLYSLSSVVTVPSSSLGTKTYTCNVDHKPSNTKVDKRVESKYGPPCPPCPAPEFLGGPSVFLFPPKPKDTLMISRTPEVTCVVVDVSQEDPEVQFNWYVDGVEVHNAKTKPREEQFNSTYRVVSVLTVLHQDWLNGKEYKCKVSNKGLPSSIEKTISKAKGQPREPQVCTLPPSQEEMTKNQVSLSCAVKGFYPSDIAVEWESNGQPENNYKTTPPVLDSDGSFFLVSRLTVDKSRWQEGNVFSCSVMHEALHNRFTQKSLSLSLGK
notes: Two-chain scFab/scFab knob-into-hole format, IgG4 Fc
B2: bispecific antibody JS-1 (IgG4) (bispecific antibody)
heavy: QVQLVQSGAEVKKPGASVKVSCKTSGYAFTEYTMHWVRQAPGKGLEWMGGINPNTGGTTYNQKFQGRVTLTVDKSSSTAYMELSSLRSEDTVVYYCAKLLRLMYYFDYWGQGTLVTVSSASTKGPSVFPLAPCSRSTSESTAALGCLVKDYFPEPVTVSWNSGALTSGVHTFPAVLQSSGLYSLSSVVTVPSSSLGTKTYTCNVDHKPSNTKVDKRVESKYGPPCPPCPAPEFLGGPSVFLFPPKPKDTLMISRTPEVTCVVVDVSQEDPEVQFNWYVDGVEVHNAKTKPREEQFNSTYRVVSVLTVLHQDWLNGKEYKCKVSNKGLPSSIEKTISKAKGQPREPQVYTLPPCQEEMTKNQVSLWCLVKGFYPSDIAVEWESNGQPENNYKTTPPVLDSDGSFFLYSRLTVDKSRWQEGNVFSCSVMHEALHNHYTQKSLSLSLGK
light: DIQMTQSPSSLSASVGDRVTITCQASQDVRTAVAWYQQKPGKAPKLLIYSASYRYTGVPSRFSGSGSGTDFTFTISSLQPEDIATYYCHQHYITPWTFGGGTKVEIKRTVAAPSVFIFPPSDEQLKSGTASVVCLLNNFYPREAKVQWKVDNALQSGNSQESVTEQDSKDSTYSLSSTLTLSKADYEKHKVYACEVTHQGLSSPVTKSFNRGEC
chain: DIVMTQSPDSLAVSLGERATINCKASQSVSNDVAWYQQKPGQPPKLLIYYVSHRFTGVPDRFSGSGSGTDFTLTISSLQAEDVAVYFCHQAYRSPWTFGCGTKLEIKGGGGSGGGGSGGGGSGGGGSEVQLVESGGGLVKPGGSLRLSCAASGFTFSSYHMSWVRQAPGKCLELVSAINSNGINTYYLDTVKGRFTISRDNAKNSLYLQMNSLRAEDTAVYYCARHEDYYGFAMDYWGQGTLVTVSSGGGGSGGGGSESKYGPPCPPCPAPEFLGGPSVFLFPPKPKDTLMISRTPEVTCVVVDVSQEDPEVQFNWYVDGVEVHNAKTKPREEQFNSTYRVVSVLTVLHQDWLNGKEYKCKVSNKGLPSSIEKTISKAKGQPREPQVCTLPPSQEEMTKNQVSLSCAVKGFYPSDIAVEWESNGQPENNYKTTPPVLDSDGSFFLVSRLTVDKSRWQEGNVFSCSVMHEALHNRFTQKSLSLSLGK
notes: Three-chain knob-into-hole format: anti-TIGIT Fab arm and anti-CD112R scFv arm, IgG4 Fc

Tests used:
[1] = target: T1, recombinant human HX1 hCD112R Fc; assay: ELISA, relative binding activity, sample kept at 40 C for 2 weeks
Protocol: (§1) The antibody samples were exchanged into a pH 5.5 buffer system (20 mM histidine-histidine hydrochloride buffer, 230 mM trehalose) with the concentration of the samples controlled at about 5 mg/mL, and the buffer was aliquoted into vials at 500 μL/vial. The vials were placed in a 40° C. incubator to test stability at 0 W, 2 W and 4 W. Samples were sent for analysis according to Table 2. Stability was assessed by the following parameters: (a) the content of antibody monomers, aggregates or fragments determined by SEC-HPLC (size exclusion chromatography); (b) the molecular weight of the antibody determined by CE-SDS (sodium dodecyl sulfate capillary electrophoresis); and (c) the bioactivity of the antibody determined by an ELISA or reporter gene assay.

[2] = target: T2, recombinant human TIGIT (His Tag); assay: as above
Protocol: as §1

[3] = target: T2, recombinant human TIGIT (His Tag); assay: ELISA, plate coated with recombinant human TIGIT (His Tag), detection with HRP anti-human IgG4 Fc; unit taken from the concentration axis [2a]
Protocol: 2. Procedures [0241] a. A 96-well plate was coated with 1.5 μg/mL recombinant human TIGIT (His Tag) (Suzhou Junmeng) as the antigen at 100 μL/well and incubated at 37° C. for 1.5 h. [0242] b. The plate was washed 4 times with 300 μL/well 1×PBST, and 2% BSA was added at 200 μL/well. The plate was blocked at 37° C. for 1.5 h. [0243] c. The plate was washed 4 times with 300 μL/well 1×PBST, and serial dilutions of the bispecific antibodies JS-1,3,5,9 and a negative control: antibody (anti-KLH hIgG4) (initial concentration 1.0 μg/mL, 3-fold serially diluted to 12 concentration points, 100 μL/well) were added. The plate was incubated at 37° C. for 1 h. [0244] d. The plate was washed 4 times with 300 μL/well 1×PBST. [0245] e. 5000-fold diluted horseradish peroxidase (HRP)-conjugated mouse anti-human IgG4 Fc antibody (Southern Biotech, 9200-05) was added at 100 μL/well, and the plate was incubated at 37° C. for 1 h. […] The plate was washed 4 times with 300 μL/well 1×PBST. [0247] g. 0.1 mg/mL TMB was added at 100 μL/well, and after the plate was incubated at 37° C. for 15 min, a 2 M solution of hydrochloric acid was added at 100 μL/well to stop the reactions. [0248] h. The absorbance was measured at 450 nm/620 nm on a microplate reader, and data were analyzed using Graphpad Prism7.

| Binder | CD112R binding activity Elisa (%) [1] [%] | TIGIT binding activity Elisa (%) [2] [%] | EC50 [3] [µg/mL] |
| --- | --- | --- | --- |
| B1 | 98 | 88 | 0.106 |
| B2 | 87 | 75 | 0.0858 |
